Reference: patent US20170275666A1, “Methods for Preparing Rebaudioside I and Uses” (The Coca-Cola Company, priority 2014, published 2017)
Positions count from the first letter of the chain named.

B1: UGT76G1var39: UGT76G1 variant, mutations F22Y_F41L_V366I (protein, UniProt Q6VAB4 1-458, looked up, variant F22Y F41L V366I)
UDP-glycosyltransferase 76G1: MENKTETTVRRRRRIILFPVPYQGHINPILQLANVLYSKGLSITIFHTNFNKPKTSNYPHFTFRFILDNDPQDERISNLPTHGPLAGMRIPIINEHGADELRRELELLMLASEEDEEVSCLITDALWYFAQSVADSLNLRRLVLMTSSLFNFHAHVSLPQFDELGYLDPDDKTRLEEQASGFPMLKVKDIKSAYSNWQILKEILGKMIKQTKASSGVIWNSFKELEESELETVIREIPAPSFLIPLPKHLTASSSSLLDHDRTVFQWLDQQPPSSVLYVSFGSTSEVDEKDFLEIARGLVDSKQSFLWVVRPGFVKGSTWVEPLPDGFLGERGRIVKWVPQQEVLAHGAIGAFWTHSGWNSTLESICEGVPMIFSDFGLDQPLNARYMSDVLKVGVYLENGWERGEIANAIRRVMVDEEGEYIRQNARVLKQKADVSLMKGGSSYESLESLVSYISSL
B2: UGT76G1var43: UGT76G1 variant, mutations S241I_P272A_V279I (protein, UniProt Q6VAB4 1-458, looked up, variant S241I P272A V279I)
UDP-glycosyltransferase 76G1: B1 UDP-glycosyltransferase 76G1 with Y22F, L41F, S241I, P272A, V279I, I366V
B3: UGT76G1var47: UGT76G1 variant, mutations E229A_T284I_S389E (protein, UniProt Q6VAB4 1-458, looked up, variant E229A T284I S389E)
UDP-glycosyltransferase 76G1: B1 UDP-glycosyltransferase 76G1 with Y22F, L41F, E229A, T284I, I366V, S389E
B4: UGT76G1var50: UGT76G1 variant, mutations F22Y_V310I_S375M_F377C (protein, UniProt Q6VAB4 1-458, looked up, variant F22Y V310I S375M F377C)
UDP-glycosyltransferase 76G1: B1 UDP-glycosyltransferase 76G1 with L41F, V310I, I366V, S375M, F377C
B5: UGT76G1var41: UGT76G1 variant, mutations L246F_A385T_K393G (protein, UniProt Q6VAB4 1-458, looked up, variant L246F A385T K393G)
UDP-glycosyltransferase 76G1: B1 UDP-glycosyltransferase 76G1 with Y22F, L41F, L246F, I366V, A385T, K393G
B6: UGT76G1var3: UGT76G1 variant, mutations I295T_S357C_V366I (protein, UniProt Q6VAB4 1-458, looked up, variant I295T S357C V366I)
UDP-glycosyltransferase 76G1: B1 UDP-glycosyltransferase 76G1 with Y22F, L41F, I295T, S357C
B7: UGT76G1var56: UGT76G1 variant, mutations L246F_A352G_S357N_Q432E (protein, UniProt Q6VAB4 1-458, looked up, variant L246F A352G S357N Q432E)
UDP-glycosyltransferase 76G1: B1 UDP-glycosyltransferase 76G1 with Y22F, L41F, L246F, A352G, S357N, I366V, Q432E
B8: UGT76G1var57: UGT76G1 variant, mutations S241I_T263S_L379G_A385T (protein, UniProt Q6VAB4 1-458, looked up, variant S241I T263S L379G A385T)
UDP-glycosyltransferase 76G1: B1 UDP-glycosyltransferase 76G1 with Y22F, L41F, S241I, T263S, I366V, L379G, A385T
B9: UGT76G1var46: UGT76G1 variant, mutations F22L_Q266E_I295M (protein, UniProt Q6VAB4 1-458, looked up, variant F22L Q266E I295M)
UDP-glycosyltransferase 76G1: B1 UDP-glycosyltransferase 76G1 with Y22L, L41F, Q266E, I295M, I366V
B10: UGT76G1var49: UGT76G1 variant, mutations F41L_Q266E_T284I_Y397Q (protein, UniProt Q6VAB4 1-458, looked up, variant F41L Q266E T284I Y397Q)
UDP-glycosyltransferase 76G1: B1 UDP-glycosyltransferase 76G1 with Y22F, Q266E, T284I, I366V, Y397Q
B11: UGT76G1var42: UGT76G1 variant, mutations T263S_Q266S_R334H (protein, UniProt Q6VAB4 1-458, looked up, variant T263S Q266S R334H)
UDP-glycosyltransferase 76G1: B1 UDP-glycosyltransferase 76G1 with Y22F, L41F, T263S, Q266S, R334H, I366V
B12: UGT76G1var55: UGT76G1 variant, mutations I295M_Q342E_V366I_N409R (protein, UniProt Q6VAB4 1-458, looked up, variant I295M Q342E V366I N409R)
UDP-glycosyltransferase 76G1: B1 UDP-glycosyltransferase 76G1 with Y22F, L41F, I295M, Q342E, N409R
B13: UGT76G1var44: UGT76G1 variant, mutations I335V_S375R_I407V (protein, UniProt Q6VAB4 1-458, looked up, variant I335V S375R I407V)
UDP-glycosyltransferase 76G1: B1 UDP-glycosyltransferase 76G1 with Y22F, L41F, I335V, I366V, S375R, I407V
B14: UGT76G1var45: UGT76G1 variant, mutations V279I_D301N_S389E (protein, UniProt Q6VAB4 1-458, looked up, variant V279I D301N S389E)
UDP-glycosyltransferase 76G1: B1 UDP-glycosyltransferase 76G1 with Y22F, L41F, V279I, D301N, I366V, S389E
B15: UGT76G1var48: UGT76G1 variant, mutations V394I_Y397E_Q432E (protein, UniProt Q6VAB4 1-458, looked up, variant V394I Y397E Q432E)
UDP-glycosyltransferase 76G1: B1 UDP-glycosyltransferase 76G1 with Y22F, L41F, I366V, V394I, Y397E, Q432E
B16: UGT76G1var52: UGT76G1 variant, mutations D301N_I373L_F377C_I407V (protein, UniProt Q6VAB4 1-458, looked up, variant D301N I373L F377C I407V)
UDP-glycosyltransferase 76G1: B1 UDP-glycosyltransferase 76G1 with Y22F, L41F, D301N, I366V, I373L, F377C, I407V
B17: UGT76G1var54: UGT76G1 variant, mutations E229A_T284L_R334K_Q342E (protein, UniProt Q6VAB4 1-458, looked up, variant E229A T284L R334K Q342E)
UDP-glycosyltransferase 76G1: B1 UDP-glycosyltransferase 76G1 with Y22F, L41F, E229A, T284L, R334K, Q342E, I366V
B18: UGT76G1var40: UGT76G1 variant, mutations T263S_Q266E_S375R (protein, UniProt Q6VAB4 1-458, looked up, variant T263S Q266E S375R)
UDP-glycosyltransferase 76G1: B1 UDP-glycosyltransferase 76G1 with Y22F, L41F, T263S, Q266E, I366V, S375R
B19: UGT76G1var51: UGT76G1 variant, mutations K303G_S357C_S389E_V396F (protein, UniProt Q6VAB4 1-458, looked up, variant K303G S357C S389E V396F)
UDP-glycosyltransferase 76G1: B1 UDP-glycosyltransferase 76G1 with Y22F, L41F, K303G, S357C, I366V, S389E, V396F
B20: UGT76G1var53: UGT76G1 variant, mutations R334K_A352G_P382M_S389E (protein, UniProt Q6VAB4 1-458, looked up, variant R334K A352G P382M S389E)
UDP-glycosyltransferase 76G1: B1 UDP-glycosyltransferase 76G1 with Y22F, L41F, R334K, A352G, I366V, P382M, S389E
B21: UGT76G1var2: UGT76G1 variant, mutations S274G_T284I_L379G (protein, UniProt Q6VAB4 1-458, looked up, variant S274G T284I L379G)
UDP-glycosyltransferase 76G1: B1 UDP-glycosyltransferase 76G1 with Y22F, L41F, S274G, T284I, I366V, L379G

experiment: Directed evolution of UGT76G1, conversion of Rebaudioside D to Rebaudioside M (round 1); format: biochemical; details: 0.5 mM Rebaudioside D, 2.5 mM UDP-Glucose, 100 μL fresh lysate, 30° C., pH 7.2
From the text: Starting from the amino acid sequence of UGT76G1, as is described in Genbank (AAR06912.1), different mutations at various amino acid positions were identified that could alter the activity of the enzyme for the transformation of Rebaudioside D (Reb D) to Rebaudioside M (Reb M). This list of mutations, designed by DNA2.0 ProteinGPS™ strategy, was subsequently used to synthesize 96 variant genes that contained 3, 4 or 5 of these mutations that were codon-optimized for expression in E. coli. The genes were subcloned in the pET30a+ plasmid and used for transformation of E. coli BL21 (DE3) chemically competent cells. The obtained cells were grown in Petri-dishes on solid LB medium in the presence of Kanamycin. Suitable colonies were selected and allowed to grow in liquid LB medium in tubes. Glycerol was added to the suspension as cryoprotectant and 400 μL aliquots were stored at −20° C. and at −80° C.
These storage aliquots of E. coli BL21(DE3) containing the pET30a+_UGT76G1var plasmids were thawed and added to LBGKP medium (20 g/L Luria Broth Lennox; 50 mM PIPES buffer pH 7.00; 50 mM Phosphate buffer pH 7.00; 2.5 g/L glucose and 50 mg/L of Kanamycine). This culture was allowed to shake in a 96 microtiter plate at 135 rpm at 30° C. for 8 h.
3.95 mL of production medium containing 60 g/L of Overnight Express™ Instant TB medium (Novagen®), 10 g/L of glycerol and 50 mg/L of Kanamycin was inoculated with 50 μL of above described culture. In a 48 deepwell plate the resulting culture was allowed to stir at 20° C. The cultures gave significant growth and a good OD (600 nm; 1 cm) was obtained. After 44 h, the cells were harvested by centrifugation and frozen.
Lysis was performed by addition of Bugbuster® Master mix (Novagen®) to the thawed cells and the lysate was recovered by centrifugation. Activity tests were performed with 100 μL of fresh lysate that was added to a solution of Rebaudioside D (final concentration 0.5 mM), MgCl2 (final concentration 3 mM) and UDP-Glucose (final concentration 2.5 mM) in 50 mM phosphate buffer pH 7.2.
The reaction was allowed to run at 30° C. and samples were taken after 2, 4, 7 and 24 h. to determine conversion and initial rate by HPLC (CAD detection) using the analytical method that was described above for the transformation of Rebaudioside D to Rebaudioside M. The results are depicted in the following table.

Row | Molecule | Conversion Reb D to Reb M after 24 h (%) | initial rate (Reb M area/min)
1 | B1 | 7.2% | 3.3E+06 Reb M area/min
2 | B2 | 19.9% | 9.4E+06 Reb M area/min
3 | B3 | 4.8% | 2.7E+06 Reb M area/min
4 | B4 | 1.9% | 7.9E+05 Reb M area/min
5 | B5 | 0.8% | 1.4E+06 Reb M area/min
6 | B6 | 9.6% | 1.6E+06 Reb M area/min
7 | B7 | 0.4% | 4.1E+04 Reb M area/min
8 | B8 | 0.8% | 1.5E+05 Reb M area/min
9 | B9 | 0.6% | 9.8E+05 Reb M area/min
10 | B10 | 2.6% | 1.1E+06 Reb M area/min
11 | B11 | 34.6% | 2.2E+07 Reb M area/min
12 | B12 | 1.0% | 2.2E+05 Reb M area/min
13 | B13 | 35.3% | 2.3E+07 Reb M area/min
14 | B14 | 38.6% | 2.3E+07 Reb M area/min
15 | B15 | 47.6% | 3.8E+07 Reb M area/min
16 | B16 | 12.9% | 4.6E+06 Reb M area/min
17 | B17 | 0.7% | 4.3E+05 Reb M area/min
18 | B18 | 47.6% | 3.3E+07 Reb M area/min
19 | B19 | 18.7% | 9.5E+06 Reb M area/min
20 | B20 | 9.3% | 4.1E+06 Reb M area/min
21 | B21 | 49.3% | 4.7E+07 Reb M area/min
